The text below walks through data of patent US20210230279A1 (University of California, published 2021).

The target in test [1] is T1, recombinant human integrin αvβ6 (human, UniProt P18564 22-707).
T1 construct: also called αvβ6 (R&D systems); αvβ6 receptor
Description: ELISA: integrin coated on plate, supernatant of transfected 293 cells at 1/10 dilution, anti-mouse IgG-HRP; score normalized to expression.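 Further: scale runs from 0 (no apparent binding) to 4 (robust binding), with scores adjusted for clone protein expression as determined by a murine IgG ELISA.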
Description: (§1) Binding was quantified by intensity as 0-4 (0 representing no apparent binding; 4 representing robust binding) and results normalized to expression.

Test [2] addresses T2, recombinant human integrin αvβ3 (human, UniProt P05106 27-718).
T2 construct: Bought; also called αvβ3 (R&D systems)
As to the kind of experiment: ELISA on coated recombinant human integrin; 0 = no apparent binding. Background: In an ELISA, binding on a coated surface is turned into a signal by an enzyme label.
Description: as §1

Test [3] deals with T3, recombinant human integrin αvβ8 (human, UniProt P06756 31-992; P26012 43-684).
T3 construct: also called Human Integrin alpha V beta 8; purified recombinant αvβ8
T3 sequence (P06756 31-992 limits assumed, chain 1 of 2): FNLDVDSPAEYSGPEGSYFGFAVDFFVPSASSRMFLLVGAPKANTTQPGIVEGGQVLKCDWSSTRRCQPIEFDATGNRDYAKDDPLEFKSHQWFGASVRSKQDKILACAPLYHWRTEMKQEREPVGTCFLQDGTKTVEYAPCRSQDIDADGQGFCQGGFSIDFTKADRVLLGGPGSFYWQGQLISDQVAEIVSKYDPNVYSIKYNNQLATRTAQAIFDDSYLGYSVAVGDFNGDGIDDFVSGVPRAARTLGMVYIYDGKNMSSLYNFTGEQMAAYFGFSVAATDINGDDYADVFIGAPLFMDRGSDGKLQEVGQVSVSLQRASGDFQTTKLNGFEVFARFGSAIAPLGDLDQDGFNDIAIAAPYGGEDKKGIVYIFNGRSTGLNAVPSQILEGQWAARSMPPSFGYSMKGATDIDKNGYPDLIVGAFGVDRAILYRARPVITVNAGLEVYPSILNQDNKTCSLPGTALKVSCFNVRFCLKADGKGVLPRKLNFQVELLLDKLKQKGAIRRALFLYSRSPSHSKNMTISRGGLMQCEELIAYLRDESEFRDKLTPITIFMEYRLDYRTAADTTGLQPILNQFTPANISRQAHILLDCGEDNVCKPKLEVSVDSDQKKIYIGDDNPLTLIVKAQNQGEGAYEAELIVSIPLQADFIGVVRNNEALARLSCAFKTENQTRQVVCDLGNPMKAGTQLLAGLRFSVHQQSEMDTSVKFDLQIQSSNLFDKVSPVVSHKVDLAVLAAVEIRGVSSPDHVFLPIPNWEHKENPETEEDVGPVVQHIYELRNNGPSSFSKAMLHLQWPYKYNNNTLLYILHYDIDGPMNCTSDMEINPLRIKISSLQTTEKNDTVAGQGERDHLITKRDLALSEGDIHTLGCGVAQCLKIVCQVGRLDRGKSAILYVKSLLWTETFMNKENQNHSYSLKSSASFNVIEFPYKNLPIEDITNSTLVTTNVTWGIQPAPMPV
T3 sequence (P26012 43-684 limits assumed, chain 2 of 2): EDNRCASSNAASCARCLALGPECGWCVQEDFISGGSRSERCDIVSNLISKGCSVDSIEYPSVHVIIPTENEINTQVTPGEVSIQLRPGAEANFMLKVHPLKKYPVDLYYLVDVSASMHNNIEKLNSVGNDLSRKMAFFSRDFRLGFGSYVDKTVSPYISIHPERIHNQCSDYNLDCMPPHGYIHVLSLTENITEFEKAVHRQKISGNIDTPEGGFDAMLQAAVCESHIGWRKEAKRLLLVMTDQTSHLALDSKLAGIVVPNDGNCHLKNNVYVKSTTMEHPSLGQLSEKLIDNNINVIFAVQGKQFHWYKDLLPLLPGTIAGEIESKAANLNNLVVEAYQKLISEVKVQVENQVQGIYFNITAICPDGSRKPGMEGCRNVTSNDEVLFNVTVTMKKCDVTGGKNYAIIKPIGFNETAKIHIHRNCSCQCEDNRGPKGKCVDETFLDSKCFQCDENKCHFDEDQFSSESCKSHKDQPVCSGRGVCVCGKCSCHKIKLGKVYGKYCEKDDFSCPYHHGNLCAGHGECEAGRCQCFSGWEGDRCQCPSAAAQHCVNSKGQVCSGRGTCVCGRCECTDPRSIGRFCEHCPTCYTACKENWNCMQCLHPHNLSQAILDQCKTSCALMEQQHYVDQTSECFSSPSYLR
The test is described as above.
Description: as §1

For test [4], the target named is T4, recombinant human integrin αvβ5 (human, UniProt P18084 24-719).
T4 construct: Bought; also called αvβ5 (R&D systems)
T4 sequence (chain, as listed by the source limits assumed, chain 1 of 2): as the sequence (P06756 31-992 limits assumed, chain 1 of 2) above
T4 sequence (P18084 24-719 limits assumed, chain 2 of 2): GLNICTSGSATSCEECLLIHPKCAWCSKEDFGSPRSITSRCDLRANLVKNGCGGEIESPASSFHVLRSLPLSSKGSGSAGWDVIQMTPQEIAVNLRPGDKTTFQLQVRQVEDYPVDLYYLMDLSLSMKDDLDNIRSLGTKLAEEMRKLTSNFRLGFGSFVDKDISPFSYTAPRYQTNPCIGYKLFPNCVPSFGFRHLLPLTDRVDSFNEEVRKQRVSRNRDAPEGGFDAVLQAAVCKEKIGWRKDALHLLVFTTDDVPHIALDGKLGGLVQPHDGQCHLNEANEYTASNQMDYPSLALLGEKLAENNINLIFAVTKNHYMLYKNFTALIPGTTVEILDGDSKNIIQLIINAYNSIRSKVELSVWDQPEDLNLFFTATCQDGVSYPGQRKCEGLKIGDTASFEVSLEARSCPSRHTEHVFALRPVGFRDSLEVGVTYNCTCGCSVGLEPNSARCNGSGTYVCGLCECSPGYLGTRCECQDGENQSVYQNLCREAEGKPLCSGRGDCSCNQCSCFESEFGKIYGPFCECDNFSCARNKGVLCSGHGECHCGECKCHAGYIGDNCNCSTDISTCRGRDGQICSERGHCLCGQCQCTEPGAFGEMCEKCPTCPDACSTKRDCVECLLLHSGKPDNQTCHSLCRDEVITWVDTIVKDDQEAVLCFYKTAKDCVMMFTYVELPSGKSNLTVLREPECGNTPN
The test is described as above.
Description: as §1

For test [5], the target named is T5, recombinant human integrin αvβ1 (human, UniProt P05556 21-728).
T5 construct: Bought; also called αvβ1 (R&D systems)
T5 sequence (chain, as listed by the source limits assumed, chain 1 of 2): as the sequence (P06756 31-992 limits assumed, chain 1 of 2) above
T5 sequence (P05556 21-728 limits assumed, chain 2 of 2): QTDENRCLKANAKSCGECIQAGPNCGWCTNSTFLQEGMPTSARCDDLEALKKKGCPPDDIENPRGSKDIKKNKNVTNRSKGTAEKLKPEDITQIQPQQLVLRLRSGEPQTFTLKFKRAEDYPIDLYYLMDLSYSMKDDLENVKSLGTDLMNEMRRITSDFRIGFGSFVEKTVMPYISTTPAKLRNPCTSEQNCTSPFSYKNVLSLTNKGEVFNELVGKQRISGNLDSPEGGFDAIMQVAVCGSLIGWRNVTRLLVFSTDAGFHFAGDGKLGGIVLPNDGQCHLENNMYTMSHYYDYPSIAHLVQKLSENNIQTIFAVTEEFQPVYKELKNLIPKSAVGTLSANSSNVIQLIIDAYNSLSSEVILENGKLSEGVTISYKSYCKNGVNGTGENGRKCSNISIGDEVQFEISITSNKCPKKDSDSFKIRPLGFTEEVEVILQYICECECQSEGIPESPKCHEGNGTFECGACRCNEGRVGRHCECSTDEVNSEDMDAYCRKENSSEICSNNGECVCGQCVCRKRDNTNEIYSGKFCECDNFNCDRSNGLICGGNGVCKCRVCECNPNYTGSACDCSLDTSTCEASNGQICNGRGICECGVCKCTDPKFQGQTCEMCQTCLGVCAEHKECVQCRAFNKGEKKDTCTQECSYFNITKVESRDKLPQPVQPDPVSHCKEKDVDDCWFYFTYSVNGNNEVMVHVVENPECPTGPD
The test is described as above.
Description: as §1

The target of test [6] is T3, recombinant human integrin αvβ8. Description: ELISA: integrin coated on plate, supernatant of transfected 293 cells at 1/10 dilution, anti-mouse IgG-HRP; score normalized to expression.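 Further: scale runs from 0 (no apparent binding) to 4 (robust binding), with scores adjusted for clone protein expression as determined by a murine IgG ELISA.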
Description: as §1
The target of test [7] is T2, recombinant human integrin αvβ3. The description is as above.
Description: as §1

T1 sequence (chain, as listed by the source limits assumed, chain 1 of 2): as the sequence (P06756 31-992 limits assumed, chain 1 of 2) above
T1 sequence (P18564 22-707 limits assumed, chain 2 of 2): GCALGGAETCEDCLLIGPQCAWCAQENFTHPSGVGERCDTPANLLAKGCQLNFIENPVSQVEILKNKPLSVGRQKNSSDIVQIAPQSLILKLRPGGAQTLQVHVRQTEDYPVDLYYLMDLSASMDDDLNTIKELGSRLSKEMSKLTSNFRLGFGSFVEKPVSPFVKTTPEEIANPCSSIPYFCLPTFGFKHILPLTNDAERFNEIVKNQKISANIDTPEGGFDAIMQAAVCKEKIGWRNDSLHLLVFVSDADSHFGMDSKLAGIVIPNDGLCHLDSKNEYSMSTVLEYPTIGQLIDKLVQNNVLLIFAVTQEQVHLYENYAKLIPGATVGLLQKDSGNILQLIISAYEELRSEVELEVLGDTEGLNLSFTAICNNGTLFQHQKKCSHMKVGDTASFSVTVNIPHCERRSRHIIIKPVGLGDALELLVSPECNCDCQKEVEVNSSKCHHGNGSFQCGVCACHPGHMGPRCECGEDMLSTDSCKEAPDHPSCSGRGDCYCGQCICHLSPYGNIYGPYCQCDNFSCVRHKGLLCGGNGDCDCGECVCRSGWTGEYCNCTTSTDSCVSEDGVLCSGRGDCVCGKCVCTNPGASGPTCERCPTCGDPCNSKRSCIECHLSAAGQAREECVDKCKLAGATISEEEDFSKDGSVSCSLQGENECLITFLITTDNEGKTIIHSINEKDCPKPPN
T2 sequence (chain, as listed by the source limits assumed, chain 1 of 2): as the sequence (P06756 31-992 limits assumed, chain 1 of 2) above
T2 sequence (P05106 27-718 limits assumed, chain 2 of 2): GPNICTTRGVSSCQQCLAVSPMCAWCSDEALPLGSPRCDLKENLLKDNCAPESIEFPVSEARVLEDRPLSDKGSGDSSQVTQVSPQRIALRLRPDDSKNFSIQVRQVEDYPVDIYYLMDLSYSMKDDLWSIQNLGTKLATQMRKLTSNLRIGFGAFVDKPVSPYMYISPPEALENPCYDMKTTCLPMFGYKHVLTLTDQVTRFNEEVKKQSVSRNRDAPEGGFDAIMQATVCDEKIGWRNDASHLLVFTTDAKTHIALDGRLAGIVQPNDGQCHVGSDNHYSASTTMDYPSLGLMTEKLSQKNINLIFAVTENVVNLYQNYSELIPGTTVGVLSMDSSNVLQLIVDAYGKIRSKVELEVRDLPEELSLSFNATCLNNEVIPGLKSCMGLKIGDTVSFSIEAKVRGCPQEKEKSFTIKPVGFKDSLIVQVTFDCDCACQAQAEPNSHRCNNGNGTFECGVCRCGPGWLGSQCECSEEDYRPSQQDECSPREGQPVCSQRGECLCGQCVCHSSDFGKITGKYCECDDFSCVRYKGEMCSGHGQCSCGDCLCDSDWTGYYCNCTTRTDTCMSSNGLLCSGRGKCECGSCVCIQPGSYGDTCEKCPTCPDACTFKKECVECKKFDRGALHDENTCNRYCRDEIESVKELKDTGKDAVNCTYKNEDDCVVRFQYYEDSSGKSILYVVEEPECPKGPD

B1: C6 VH / RGD3-10 Vk murine IgG (antibody, V domains shown)
VH: QIQLLQSGPELKKPGETVKISCKASGYTFTDYSMHWVKQAPGKGLKWVARINTETGEPTFADDFRGRFAVSLETSASTAYLQINNLKNEDTATYFCAIFYYGRDSWGQGTTLTVSS
VL: DIVMTQSPSSLAVSAGEKVTMSCKSSQSLLGRGDLGRLKKQKDHWYQQKPGQSPRLLIYWASTRESGVPDRFTGSGSGTDFTLTISSVQAEDLAVYYCKQSYNLLSFGAGTKLELKR
notes: Murine IgG, supernatant of 293 cells; CDRL1 swap into the C6D4 murine IgG vector, VH not altered; also called C6RGD3-10
For B1, in test [1], the “binding intensity score (0-4)” value was determined as 1 score 0-4. Moreover, the binding result in test [2], in test [3], in test [4] and in test [5] was “no binding (tested: supernatant at 1/10 dilution)” throughout.

B2: C6 VH / RGD3-1 Vk murine IgG (antibody, V domains shown)
VH: QIQLLQSGPELKKPGETVKISCKASGYTFTDYSMHWVKQAPGKGLKWVARINTETGEPTFADDFRGRFAVSLETSASTAYLQINNLKNEDTATYFCAIFYYGRDSWGQGTTLTVSS
VL: DIVMTQSPSSLAVSAGEKVTMSCKSSQSLLGRGDLGRLKKQKDHNALAWYQQKPGQSPRLLIYWASTRESGVPDRFTGSGSGTDFTLTISSVQAEDLAVYYCKQSYNLLSFGAGTKLELKR
notes: Murine IgG, supernatant of 293 cells; CDRL1 swap into the C6D4 murine IgG vector, VH not altered; also called C6RGD3-1
In the case of B2, the entries for the “binding intensity score (0-4)” value in test [1] and in test [6] were 4 score 0-4 and 1 score 0-4, respectively. In addition, the binding result in test [2], in test [4] and in test [5] was “no binding (tested: supernatant at 1/10 dilution)” in each case.

B3: C6 VH / RGD3-3 Vk murine IgG (antibody, V domains shown)
VH: QIQLLQSGPELKKPGETVKISCKASGYTFTDYSMHWVKQAPGKGLKWVARINTETGEPTFADDFRGRFAVSLETSASTAYLQINNLKNEDTATYFCAIFYYGRDSWGQGTTLTVSS
VL: DIVMTQSPSSLAVSAGEKVTMSCKSSQSLLGRGDLGRLKKQKNALAWYQQKPGQSPRLLIYWASTRESGVPDRFTGSGSGTDFTLTISSVQAEDLAVYYCKQSYNLLSFGAGTKLELKR
notes: Murine IgG, supernatant of 293 cells; CDRL1 swap into the C6D4 murine IgG vector, VH not altered; also called C6RGD3-3
For B3, the “binding intensity score (0-4)” value in test [1] and in test [6] was 4 score 0-4 each time. Also, the binding result in test [2], in test [4] and in test [5] was “no binding (tested: supernatant at 1/10 dilution)” each time.

B4: C6 VH / RGD3-2 Vk murine IgG (antibody, V domains shown)
VH: QIQLLQSGPELKKPGETVKISCKASGYTFTDYSMHWVKQAPGKGLKWVARINTETGEPTFADDFRGRFAVSLETSASTAYLQINNLKNEDTATYFCAIFYYGRDSWGQGTTLTVSS
VL: DIVMTQSPSSLAVSAGEKVTMSCKSSQSLLGRGDLGRLKKQKDNALAWYQQKPGQSPRLLIYWASTRESGVPDRFTGSGSGTDFTLTISSVQAEDLAVYYCKQSYNLLSFGAGTKLELKR
notes: Murine IgG, supernatant of 293 cells; CDRL1 swap into the C6D4 murine IgG vector, VH not altered; also called C6RGD3-2
On to B4, for which the “binding intensity score (0-4)” value in test [1] and in test [6] was 4 score 0-4 each time. The binding result in test [2], in test [4] and in test [5] was “no binding (tested: supernatant at 1/10 dilution)” in each case.

B5: C6 VH / RGD3-7 Vk murine IgG (antibody, V domains shown)
VH: QIQLLQSGPELKKPGETVKISCKASGYTFTDYSMHWVKQAPGKGLKWVARINTETGEPTFADDFRGRFAVSLETSASTAYLQINNLKNEDTATYFCAIFYYGRDSWGQGTTLTVSS
VL: DIVMTQSPSSLAVSAGEKVTMSCKSSQSLLGRGDLGRLNALAWYQQKPGQSPRLLIYWASTRESGVPDRFTGSGSGTDFTLTISSVQAEDLAVYYCKQSYNLLSFGAGTKLELKR
notes: Murine IgG, supernatant of 293 cells; CDRL1 swap into the C6D4 murine IgG vector, VH not altered; also called C6RGD3-7
For the molecule B5, the “binding intensity score (0-4)” value in test [7] amounted to 4 score 0-4; in test [1] it was 2 score 0-4; in test [6], 2 score 0-4. Moreover, the binding result in test [4] and in test [5] was “no binding (tested: supernatant at 1/10 dilution)” each time.

B6: C6 VH / RGD3-4 Vk murine IgG (antibody, V domains shown)
VH: QIQLLQSGPELKKPGETVKISCKASGYTFTDYSMHWVKQAPGKGLKWVARINTETGEPTFADDFRGRFAVSLETSASTAYLQINNLKNEDTATYFCAIFYYGRDSWGQGTTLTVSS
VL: DIVMTQSPSSLAVSAGEKVTMSCKSSQSLLGRGDLGRLKKQNALAWYQQKPGQSPRLLIYWASTRESGVPDRFTGSGSGTDFTLTISSVQAEDLAVYYCKQSYNLLSFGAGTKLELKR
notes: Murine IgG, supernatant of 293 cells; CDRL1 swap into the C6D4 murine IgG vector, VH not altered; also called C6RGD3-4
B6: the “binding intensity score (0-4)” value in test [1] and in test [6] was 4 score 0-4 each time. Besides, the binding result in test [2], in test [4] and in test [5] was “no binding (tested: supernatant at 1/10 dilution)” each time.

B7: C6 VH / RGD3-8 Vk murine IgG (antibody, V domains shown)
VH: QIQLLQSGPELKKPGETVKISCKASGYTFTDYSMHWVKQAPGKGLKWVARINTETGEPTFADDFRGRFAVSLETSASTAYLQINNLKNEDTATYFCAIFYYGRDSWGQGTTLTVSS
VL: DIVMTQSPSSLAVSAGEKVTMSCKSSQSLLGRGDLGRNALAWYQQKPGQSPRLLIYWASTRESGVPDRFTGSGSGTDFTLTISSVQAEDLAVYYCKQSYNLLSFGAGTKLELKR
notes: Murine IgG, supernatant of 293 cells; CDRL1 swap into the C6D4 murine IgG vector, VH not altered; also called C6RGD3-8
In the case of B7, the “binding intensity score (0-4)” value in test [7], in test [1] and in test [6] was 3 score 0-4 in each case. Moreover, the binding result in test [4] and in test [5] was “no binding (tested: supernatant at 1/10 dilution)” in each case.

B8: C6 VH / RGD3-6 Vk murine IgG (antibody, V domains shown)
VH: QIQLLQSGPELKKPGETVKISCKASGYTFTDYSMHWVKQAPGKGLKWVARINTETGEPTFADDFRGRFAVSLETSASTAYLQINNLKNEDTATYFCAIFYYGRDSWGQGTTLTVSS
VL: DIVMTQSPSSLAVSAGEKVTMSCKSSQSLLGRGDLGRLKNALAWYQQKPGQSPRLLIYWASTRESGVPDRFTGSGSGTDFTLTISSVQAEDLAVYYCKQSYNLLSFGAGTKLELKR
notes: Murine IgG, supernatant of 293 cells; CDRL1 swap into the C6D4 murine IgG vector, VH not altered; also called C6RGD3-6
B8: the “binding intensity score (0-4)” value in test [1] and in test [6] was 4 score 0-4 each time. Besides, the binding result in test [2], in test [4] and in test [5] was “no binding (tested: supernatant at 1/10 dilution)” throughout.

B9: C6 VH / RGD3-11 Vk murine IgG (antibody, V domains shown)
VH: QIQLLQSGPELKKPGETVKISCKASGYTFTDYSMHWVKQAPGKGLKWVARINTETGEPTFADDFRGRFAVSLETSASTAYLQINNLKNEDTATYFCAIFYYGRDSWGQGTTLTVSS
VL: DIVMTQSPSSLAVSAGEKVTMSCKSSQSLLGRGDLGRLKKQKDWYQQKPGQSPRLLIYWASTRESGVPDRFTGSGSGTDFTLTISSVQAEDLAVYYCKQSYNLLSFGAGTKLELKR
notes: Murine IgG, supernatant of 293 cells; CDRL1 swap into the C6D4 murine IgG vector, VH not altered; also called C6RGD3-11
For B9, the “binding intensity score (0-4)” value in test [1] came to 2 score 0-4; in test [6], 1 score 0-4. Also, the binding result in test [2], in test [4] and in test [5] was “no binding (tested: supernatant at 1/10 dilution)” in each case.
